Experimental data: USRE47223 (Genentech, dated 2019)

Assays:
TAT10772 polypeptide [1] = biological target: T1, TAT10772 polypeptide (human); experiment: Western blot, ELISA, FACS of TAT10772-expressing cells and/or immunohistochemistry
T1 construct: Cell-surface TAT10772 on engineered PC3 cells (PC3/A5.3B2), OVCAR-3, OVCA-432, SK-OV-3 cells and tumor tissue; also called TAT10772 target polypeptide

5-domain TAT10772 [2] = biological target: T2, 5-domain TAT10772 (human); experiment: ELISA, IgG, 5′-domain TAT10772
T2 construct: Recombinant portion of the extracellular domain, expressed in CHO cells; also called 5-mucin domain
T2 chain: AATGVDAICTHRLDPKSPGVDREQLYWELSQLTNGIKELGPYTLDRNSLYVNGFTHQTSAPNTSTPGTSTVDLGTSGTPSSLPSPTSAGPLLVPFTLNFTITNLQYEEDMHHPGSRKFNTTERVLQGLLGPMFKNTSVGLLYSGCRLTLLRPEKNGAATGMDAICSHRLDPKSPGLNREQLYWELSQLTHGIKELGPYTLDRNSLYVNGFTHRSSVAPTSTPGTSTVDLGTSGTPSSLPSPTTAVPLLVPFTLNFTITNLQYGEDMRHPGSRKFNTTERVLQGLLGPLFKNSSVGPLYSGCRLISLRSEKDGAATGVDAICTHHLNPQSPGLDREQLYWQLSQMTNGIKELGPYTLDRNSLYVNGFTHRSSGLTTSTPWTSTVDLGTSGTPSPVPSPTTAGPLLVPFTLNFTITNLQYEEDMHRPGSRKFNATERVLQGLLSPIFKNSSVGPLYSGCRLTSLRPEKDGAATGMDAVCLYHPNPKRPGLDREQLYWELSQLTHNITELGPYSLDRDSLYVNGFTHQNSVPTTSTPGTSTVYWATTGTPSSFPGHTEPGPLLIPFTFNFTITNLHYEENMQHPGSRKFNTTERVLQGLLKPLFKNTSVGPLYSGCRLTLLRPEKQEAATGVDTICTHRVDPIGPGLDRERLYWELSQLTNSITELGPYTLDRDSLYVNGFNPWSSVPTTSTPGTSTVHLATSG

5-domain TAT10772 [3] = biological target: T2, 5-domain TAT10772; experiment: Biacore SPR, 5′-domain TAT10772 over immobilized IgG
TAT10772 polypeptide [4] = biological target: T1, TAT10772 polypeptide; experiment: Scatchard analysis, IgG; form of TAT10772 not stated
[5] = biological target: T3, CA125, human TAT10772 shed antigen (human, UniProt Q8WXI7 1-14451, limits assumed); experiment: ELISA, IgG, CA125
T3 construct: domain: entire shed antigen; Bought reagent; also called CA125 polypeptide

TAT10772 polypeptide [6] = biological target: T1, TAT10772 polypeptide; experiment: ELISA on OVCAR-3 cells, IgG
TAT10772 polypeptide [7] = biological target: T1, TAT10772 polypeptide; experiment: Scatchard analysis, IgG

Row | Binder | binding result (TAT10772 polypeptide [1]) | Kd (5-domain TAT10772 [2]) | Kd (5-domain TAT10772 [3]) | koff (5-domain TAT10772 [3]) | kon (5-domain TAT10772 [3]) | Kd (TAT10772 polypeptide [4]) | Kd [5] | Kd (TAT10772 polypeptide [6]) | binding result (TAT10772 polypeptide [7])
1 | murine 3A5 anti-TAT10772 antibody (antibody, V domains shown, Murine monoclonal antibody from hybridoma; also called monoclonal antibody 3A5; monoclonal antibody 3A5.3) VH: DVQLQESGPGLVNPSQSLSLTCTVTGYSITNDYAWNWIRQFPGNKLEWMGYINYSGYTTYNPSLKSRISITRDTSKNQFFLHLNSVTTEDTATYYCARWDGGLTYWGQGTLVTVSA VL: DIQMTQSSSFLSVSLGGRVTITCKASDLIHNWLAWYQQKPGNAPRLLISGATSLETGVPSRFSGSGSGNDYTLSIASLQTEDAATYYCQQYWTTPFTFGSGTKLEIK | binds |  |  |  |  |  |  |  | 
2 | 3A5 chimera (mu3A5-H; SEQ ID NO: 11) (antibody, V domains shown, IgG; also called chimeric 3A5; chimeric antibody) VH: DVQLQESGPGLVNPSQSLSLTCTVTGYSITNDYAWNWIRQFPGNKLEWMGYINYSGYTTYNPSLKSRISITRDTSKNQFFLHLNSVTTEDTATYYCARWDGGLTYWGQGTLVTVSA VL: DIQMTQSPSSLSASVGDRVTITCKASDLIHNWLAWYQQKPGKAPKLLIYGATSLETGVPSRFSGSGSGTDFTLTISSLQPEDFATYYCQQYWTTPFTFGQGTKVEIKR |  | 2.3 nM | 2.7 nM | 0.000121 s⁻¹ | 44800 M⁻¹ s⁻¹ | 0.57 nM | 0.3 nM | 0.3 nM | 
3 | 3A5v1 (SEQ ID NO: 198) (antibody, V domains shown, Humanized IgG) VH: EVQLVESGGGLVQPGGSLRLSCAASGYSITNDYAWNWVRQAPGKGLEWVGYINYSGYTTYNPSLKSRFTISRDTSKNTLYLQMNSLRAEDTAVYYCARWASGLDYWGQGTLVTVSS VL: DIQMTQSPSSLSASVGDRVTITCKASDLIHNWLAWYQQKPGKAPKLLIYGATSLETGVPSRFSGSGSGTDFTLTISSLQPEDFATYYCQQYWTTPFTFGQGTKVEIKR |  | 3 nM | 4.8 nM | 0.000178 s⁻¹ | 36900 M⁻¹ s⁻¹ |  | 0.6 nM | 0.5 nM | 
4 | 3A5.L-graft (SEQ ID NO: 12), IgG (antibody, V domains shown, IgG) VH: EVQLVESGGGLVQPGGSLRLSCAASGYSITNDYAWNWVRQAPGKGLEWVGYINYSGYTTYNPSLKSRFTISRDNSKNTLYLQMNSLRAEDTAVYYCARWDGGLTYWGQGTLVTVSS VL: DIQMTQSPSSLSASVGDRVTITCKASDLIHNWLAWYQQKPGKAPKLLIYGATSLETGVPSRFSGSGSGTDFTLTISSLQPEDFATYYCQQYWTTPFTFGQGTKVEIKR |  |  |  |  |  |  |  | 7.1 nM | 
5 | 3A5v1b 52 (SEQ ID NO: 206) (antibody, V domains shown, Humanized IgG, 3A5.v1 with the CDR-H2 glycosylation site removed at position 52) VH: EVQLVESGGGLVQPGGSLRLSCAASGYSITNDYAWNWVRQAPGKGLEWVGYISYSGYTTYNPSLKSRFTISRDTSKNTLYLQMNSLRAEDTAVYYCARWASGLDYWGQGTLVTVSS VL: DIQMTQSPSSLSASVGDRVTITCKASDLIHNWLAWYQQKPGKAPKLLIYGATSLETGVPSRFSGSGSGTDFTLTISSLQPEDFATYYCQQYWTTPFTFGQGTKVEIKR |  |  |  |  |  | 0.47 nM |  |  | 
6 | 3A5v1b 54 (SEQ ID NO: 207) (antibody, V domains shown, Humanized IgG, 3A5.v1 with the CDR-H2 glycosylation site removed at position 54) VH: EVQLVESGGGLVQPGGSLRLSCAASGYSITNDYAWNWVRQAPGKGLEWVGYINYAGYTTYNPSLKSRFTISRDTSKNTLYLQMNSLRAEDTAVYYCARWASGLDYWGQGTLVTVSS VL: DIQMTQSPSSLSASVGDRVTITCKASDLIHNWLAWYQQKPGKAPKLLIYGATSLETGVPSRFSGSGSGTDFTLTISSLQPEDFATYYCQQYWTTPFTFGQGTKVEIKR |  |  |  |  |  | 0.37 nM |  |  | 
7 | 3A5v4b 52 (SEQ ID NO: 208) (antibody, V domains shown, Humanized IgG, 3A5.v4 with the CDR-H2 glycosylation site removed at position 52) VH: EVQLVESGGGLVQPGGSLRLSCAASGYSITNDYAWNWVRQAPGKGLEWVGYISYSGYTTYNPSLKSRFTISRDTSKNTLYLQMNSLRAEDTAVYYCARWTSGLDYWGQGTLVTVSS VL: DIQMTQSPSSLSASVGDRVTITCKASDLIHNWLAWYQQKPGKAPKLLIYGATSLETGVPSRFSGSGSGTDFTLTISSLQPEDFATYYCQQYWTTPFTFGQGTKVEIKR |  |  |  |  |  | 0.46 nM |  |  | 
8 | 3A5v4b.54 (SEQ ID NO:209) (antibody, V domains shown) VH: EVQLVESGGGLVQPGGSLRLSCAASGYSITNDYAWNWVRQAPGKGLEWVGYINYAGYTTYNPSLKSRFTISRDTSKNTLYLQMNSLRAEDTAVYYCARWTSGLDYWGQGTLVTVSS VL: DIQMTQSPSSLSASVGDRVTITCKASDLIHNWLAWYQQKPGKAPKLLIYGATSLETGVPSRFSGSGSGTDFTLTISSLQPEDFATYYCQQYWTTPFTFGQGTKVEIKR |  |  |  |  |  |  |  |  | binds
9 | 3A5v6 (SEQ ID NO: 203) (antibody, V domains shown, Humanized IgG) VH: EVQLVESGGGLVQPGGSLRLSCAASGYSITNDYAWNWVRQAPGKGLEWVGYINYSGYTTYNPSLKSRFTISRDTSKNTFYLQMNSLRAEDTAVYYCARWDSGLTYWGQGTLVTVSS VL: DIQMTQSPSSLSASVGDRVTITCKASDLIHNWLAWYQQKPGKAPKLLIYGATSLETGVPSRFSGSGSGTDFTLTISSLQPEDFATYYCQQYWTTPFTFGQGTKVEIKR |  | 5.7 nM |  |  |  |  | 4.4 nM | 0.6 nM | 
10 | 3A5.F-graft (SEQ ID NO: 13), IgG (antibody, V domains shown, IgG) VH: EVQLVESGGGLVQPGGSLRLSCAASGYSITNDYAWNWVRQAPGKGLEWVGYINYSGYTTYNPSLKSRFTISRDNSKNTFYLQMNSLRAEDTAVYYCARWDGGLTYWGQGTLVTVSS VL: DIQMTQSPSSLSASVGDRVTITCKASDLIHNWLAWYQQKPGKAPKLLIYGATSLETGVPSRFSGSGSGTDFTLTISSLQPEDFATYYCQQYWTTPFTFGQGTKVEIKR |  | 90.3 nM | 10 nM | 0.000292 s⁻¹ | 28500 M⁻¹ s⁻¹ |  | 51.4 nM | 0.6 nM | 
11 | 3A5v2 (SEQ ID NO: 199) (antibody, V domains shown, Humanized IgG) VH: EVQLVESGGGLVQPGGSLRLSCAASGYSITNDYAWNWVRQAPGKGLEWVGYINYSGYTTYNPSLKSRFTISRDTSKNTFYLQMNSLRAEDTAVYYCARWASGLSHWGQGTLVTVSS VL: DIQMTQSPSSLSASVGDRVTITCKASDLIHNWLAWYQQKPGKAPKLLIYGATSLETGVPSRFSGSGSGTDFTLTISSLQPEDFATYYCQQYWTTPFTFGQGTKVEIKR |  | 3.7 nM | 3.6 nM | 0.000121 s⁻¹ | 33400 M⁻¹ s⁻¹ |  | 0.8 nM | 0.7 nM | 
12 | 3A5v3 (SEQ ID NO: 200) (antibody, V domains shown, Humanized IgG) VH: EVQLVESGGGLVQPGGSLRLSCAASGYSITNDYAWNWVRQAPGKGLEWVGYINYSGYTTYNPSLKSRFTISRDTSKNTFYLQMNSLRAEDTAVYYCARWASGLSYWGQGTLVTVSS VL: DIQMTQSPSSLSASVGDRVTITCKASDLIHNWLAWYQQKPGKAPKLLIYGATSLETGVPSRFSGSGSGTDFTLTISSLQPEDFATYYCQQYWTTPFTFGQGTKVEIKR |  | 1.6 nM | 3.6 nM | 0.00013 s⁻¹ | 36200 M⁻¹ s⁻¹ |  | 0.5 nM | 0.2 nM | 
13 | 3A5v4 (SEQ ID NO: 201) (antibody, V domains shown, Humanized IgG) VH: EVQLVESGGGLVQPGGSLRLSCAASGYSITNDYAWNWVRQAPGKGLEWVGYINYSGYTTYNPSLKSRFTISRDTSKNTLYLQMNSLRAEDTAVYYCARWTSGLDYWGQGTLVTVSS VL: DIQMTQSPSSLSASVGDRVTITCKASDLIHNWLAWYQQKPGKAPKLLIYGATSLETGVPSRFSGSGSGTDFTLTISSLQPEDFATYYCQQYWTTPFTFGQGTKVEIKR |  | 2.4 nM |  |  |  |  | 0.3 nM | 0.8 nM | 
14 | 3A5v5 (SEQ ID NO: 202) (antibody, V domains shown, Humanized IgG) VH: EVQLVESGGGLVQPGGSLRLSCAASGYSITNDYAWNWVRQAPGKGLEWVGYINYSGYTTYNPSLKSRFTISRDTSKNTFYLQMNSLRAEDTAVYYCARWDAGLTYWGQGTLVTVSS VL: DIQMTQSPSSLSASVGDRVTITCKASDLIHNWLAWYQQKPGKAPKLLIYGATSLETGVPSRFSGSGSGTDFTLTISSLQPEDFATYYCQQYWTTPFTFGQGTKVEIKR |  | 10.2 nM |  |  |  |  | 8.2 nM | 0.6 nM | 
15 | 3A5v7 (SEQ ID NO: 204) (antibody, V domains shown, Humanized IgG) VH: EVQLVESGGGLVQPGGSLRLSCAASGYSITNDYAWNWVRQAPGKGLEWVGYINYSGYTTYNPSLKSRFTISRDTSKNTLYLQMNSLRAEDTAVYYCARWKSGLDSWGQGTLVTVSS VL: DIQMTQSPSSLSASVGDRVTITCKASDLIHNWLAWYQQKPGKAPKLLIYGATSLETGVPSRFSGSGSGTDFTLTISSLQPEDFATYYCQQYWTTPFTFGQGTKVEIKR |  | 3.3 nM |  |  |  |  | 1.2 nM | 0.8 nM | 
16 | 3A5v8 (SEQ ID NO: 205) (antibody, V domains shown, Humanized IgG) VH: EVQLVESGGGLVQPGGSLRLSCAASGYSITNDYAWNWVRQAPGKGLEWVGYINYSGYTTYNPSLKSRFTISRDTSKNTLYLQMNSLRAEDTAVYYCARWTSGLDSWGQGTLVTVSS VL: DIQMTQSPSSLSASVGDRVTITCKASDLIHNWLAWYQQKPGKAPKLLIYGATSLETGVPSRFSGSGSGTDFTLTISSLQPEDFATYYCQQYWTTPFTFGQGTKVEIKR |  | 2.6 nM | 2.3 nM | 0.000127 s⁻¹ | 55100 M⁻¹ s⁻¹ |  | 0.4 nM | 0.5 nM | 
